Test results taken from KR20220022226A (dated 2022).
Numbering of substitutions follows the chain as printed.

Legend:
[1] = molecular target: T1, GST 택(tag)이 달린 IL-33 (human, UniProt O95760 112-270); assay: ELISA, antigen fixed and scFv titrated
T1 construct: also called GST-IL-33; 재조합 GST-IL-33; not shown: Glutathione S-transferase (GST) tag; It is N-terminal, since stop codons pla
T1 sequence: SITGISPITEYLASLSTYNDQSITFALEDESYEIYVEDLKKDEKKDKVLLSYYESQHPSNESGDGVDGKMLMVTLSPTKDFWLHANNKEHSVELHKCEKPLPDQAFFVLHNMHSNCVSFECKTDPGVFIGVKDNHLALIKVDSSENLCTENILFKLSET

[2] = molecular target: IL-6 (UniProt P05231 30-212); assay: immunoblot, C2_2E12 as primary antibody, anti-HA-HRP as secondary
[3] = molecular target: IL-1b (UniProt P01584 117-269); assay: as above
[4] = molecular target: T2, BSA (UniProt P02769 25-607); assay: as above
T2 construct: Unrelated control protein in the immunoblot
T2 sequence (P02769 25-607 limits assumed): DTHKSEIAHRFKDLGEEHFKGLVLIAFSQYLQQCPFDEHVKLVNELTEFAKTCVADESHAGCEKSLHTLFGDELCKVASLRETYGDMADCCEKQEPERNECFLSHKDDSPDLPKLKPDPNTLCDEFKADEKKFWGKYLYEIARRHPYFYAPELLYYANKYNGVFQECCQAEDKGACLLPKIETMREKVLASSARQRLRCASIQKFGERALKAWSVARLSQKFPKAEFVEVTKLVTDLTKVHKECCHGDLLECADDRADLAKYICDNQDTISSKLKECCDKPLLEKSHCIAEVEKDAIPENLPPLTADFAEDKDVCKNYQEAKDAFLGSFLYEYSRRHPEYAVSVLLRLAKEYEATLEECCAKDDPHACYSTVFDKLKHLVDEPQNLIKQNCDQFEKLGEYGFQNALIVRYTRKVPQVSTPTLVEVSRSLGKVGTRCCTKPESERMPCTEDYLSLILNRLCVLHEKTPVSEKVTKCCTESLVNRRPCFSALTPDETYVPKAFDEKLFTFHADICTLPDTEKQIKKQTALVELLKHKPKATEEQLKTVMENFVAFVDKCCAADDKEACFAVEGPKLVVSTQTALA

B1: C2_1D5 (scFv)
scFv: EVQLLESGGGLVQPGGSLRLSCAASGFTFSSYYMSWVRQAPGKGLEWVSAISPGSSNKYYADSVKGRFTISRDNSKNTLYLQMNSLRAEDTAVYYCARLLSAFDYWGQGTLVTVSSGGGGSGGGGSGGGGSQSVLTQPPSASGTPGQRVTISCSGSSSNIGSNDVSWYQQLPGTAPKLLIYSDSNRPSGVPDRFSGSKSGTSASLAISGLRSEDEADYYCGAWDSSLSGYVFGGGTKLTVLGQAGQHHHHHHGAYPYDVPDYAS
notes: scFv clone from a synthetic human scFv phage library; also called Anti-IL-33 scFv C2_1D5
Kd [1]: 36 nM

B2: C1_1E1 (scFv)
scFv: B1 scFv with R98K, L100T, G120D, S154T, S166T, S184N, N185K, D214E
notes: scFv clone from a synthetic human scFv phage library; also called Anti-IL-33 scFv C1_1E1
Kd [1]: 48 nM

B3: C2_2A10 (scFv)
scFv: EVQLLESGGGLVQPGGSLRLSCAASGFTFSSYYMSWVRQAPGKGLEWVSAISPGSSNKYYADSVKGRFTISRDNSKNTLYLQMNSLGAEDTAVYYCAKLLTGFDYWGQGTLVTVSSGGGGSGGGGSGGGGSQSVLTQPPSASGTPGQRVTISCSGSSSNIGNNAVSWYQQLPGTAPKLLIYDDNHRPSGVPDRFSGSKSGTSASLAISGLRSEDEADYYCGTWDSSLSAYVFGGGTKLTVLGQAGQHHHHHHGAYPYDVPDYAS
notes: scFv clone from a synthetic human scFv phage library; also called Anti-IL-33 scFv C2_2A10
Kd [1]: 57 nM

B4: C2_2E1 (scFv)
scFv: B1 scFv with K43R, L99M, L100T, A102S, S162N, N185Q, A222S, S225Y, G229A
notes: scFv clone from a synthetic human scFv phage library; also called Anti-IL-33 scFv C2_2E1
Kd [1]: 35 nM

B5: C2_2E12 (scFv)
scFv: EVQLLESGGGLVQPGGSLRLSCAASGFTFSSYYMSWVRQAPGKGLEWVSAISPGSSNKYYADSVKGRFTISRDNSKNTLYLQMNSLRAEDTAVYYCARLTLSFDYWGQGTPVTVSSGGGGSGGGGSGGGGSQSVLTQPPSASGTPGQRVTISCSGSSSNIGSNDVSWYQQLPGTAPKLLIYADSKRPSGVPDRFSGSKSGTSASLAISGLRSEDEADYYCASWDSSLSAYVFGGGTKLTVLG
notes: The recombinant scFv was purified on Ni-NTA agarose and detected with anti-HA-HRP, so the protein tested probably carried His and HA tags; also called Anti-IL-33 scFv C2_2E12; 재조합 C2_2E12 scFv 항체
Kd [1]: 28 nM
binding result [2]: no binding (tested: 0.5 mg/ml, 1:100 희석)
binding result [3]: no binding (tested: 0.5 mg/ml, 1:100 희석)
binding result [4]: no binding (tested: 0.5 mg/ml, 1:100 희석)

B6: C2_2H5 (scFv)
scFv: EVQLLESGGGLVQPGGSLRLSCAASGFTFSSYYMSWVRQAPGKGLEWVSAISPGSSNKYYADSVKGQFTISRDNSKNTLYLQMNSLRAEDTAVYYCAKLSQSFDYWGQGTLVTVSSGGGGSGGGGSGGSGSQSVLTQPPSASGTPGQRVTISCTGSSSNIGNNGISWYQQLPGTAPKLLIYDNSHRPSGVPDRFSGSKSGTSASLAISGLRSEDETDYYCASWDSSLSGYVFGGGTKLTVLGQAGQHHHHHHGAYPYDVPDYAS
notes: scFv clone from a synthetic human scFv phage library; also called Anti-IL-33 scFv C2_2H5
Kd [1]: 31 nM
